Where a chain is given by its changes, count along the chain named.
B1: Fab F133 (VH H134, VL L117) (Fab, V domains shown)
VH: QVQLVQSGAEVKKPGSSVKVSCKASGGTFSSYAISWVRQAPGQGLEWMGGIIPIFGTANYAQKFQGRVTITADESTSTAYMELSSLRSEDTAVYYCARGADSNAVRLVGFDYWGQGTLVTVSS
VL: EIVLTQSPGTLSLSPGERATLSCRASQSVAYSSLAWYQQKPGQAPRLLIYAASSRATGIPDRFSGSGSGTDFTLTISRLEPEDFAVYYCQQSNTPPLTFGQGTKVEIK
notes: Soluble Fab-His
B2: Fab F144 (VH H149, VL L122) (Fab, V domains shown)
VH: QVQLVQSGAEVKKPGSSVKVSCKASGGTFSSYGISWVRQAPGQGLEWMGGIIPIFGTANYAQKFQGRVTITADESTSTAYMELSSLRSEDTAVYYCAREDVNYISTYSEFDYWGQGTLVTVSS
VL: B1 VL with A30R, Y31K, S33G, A51N, S92A, N93T, T94K
notes: Soluble Fab-His
B3: Fab F123 (VH H120, VL PH9L4) (Fab, V domains shown)
VH: QVQLVQSGAEVKKPGSSVKVSCKASGGTFSSYAISWVRQAPGQGLEWMGGIIPIFGTANYAQKFQGRVTITADESTSTAYMELSSLRSEDTAVYYCARHDVNSLWAYFDYWGQGTLVTVSS
VL: not shown
notes: Soluble Fab-His
B4: Fab F105 (VH H97, VL L93) (Fab, V domains shown)
VH: B3 VH with A33G, H99G, V101D, S103E, L104V, W105I, A106Y, Y107H, F108L
VL: B1 VL with Y31K, S33D, A51T, S92D, N93Y, T94G, P95Y
notes: Soluble Fab-His
B5: Fab F142 (VH H146, VL L121) (Fab, V domains shown)
VH: B3 VH with H99G, V101Y, S103A, L104I, W105Y, A106Y, Y107A, F108L
VL: DIQMTQSPSSLSASVGDRVTITCRASQSISSYLNWYQQKPGKAPKLLIYAASSLQSGVPSRFSGSGSGTDFTLTISSLQPEDFATYYCQQPISFPYTFGQGTKVEIK
notes: Soluble Fab-His
B6: Fab F9 (VH H2, VL L8) (Fab, V domains shown)
VH: QVQLVQSGAEVKKPGSSVKVSCKASGGTFSSYAISWVRQAPGQGLEWMGGIIPIFGTANYAQKFQGRVTITADESTSTAYMELSSLRSEDTAVYYCARDDLPLGRLDYWGQGTLVTVSS
VL: EIVLTQSPATLSLSPGERATLSCRASQSVAKDLAWYQQKPGQAPRLLIYTASNRATGIPARFSGSGSGTDFTLTISSLEPEDFAVYYCQQGINWPFTFGQGTKVEIK
notes: Soluble Fab-His
B7: Fab F126 (VH H123, VL L110) (Fab, V domains shown)
VH: B6 VH with D100R, L101Y, P102Y, L103F, G104T, R105V
VL: B1 VL with A30S, Y31S, S33Y, A51G, S92A, N93T, T94A, P95F
notes: Soluble Fab-His; converted to mAb B12
B8: Fab F5 (VH H4, VL L4) (Fab, V domains shown)
VH: EVQLVQSGAEVKKPGESLKISCKGSGYSFTSYWIGWVRQMPGKGLEWMGIIYPGDSDTRYSPSFQGQVTISADKSISTAYLQWSSLKASDTAMYYCARNWSEALYVVFDYWGQGTLVTVSS
VL: B6 VL with K31N, D32F, T50Y, G91Y, I92F, N93S, W94A
notes: Soluble Fab-His; converted to mAb B1
B9: Fab F63 (VH H55, VL L57) (Fab, V domains shown)
VH: QVQLVQSGAEVKKPGSSVKVSCKASGGTFSSYGISWVRQAPGQGLEWMGGIIPIFGTANYAQKFQGRVTITADESTSTAYMELSSLRSEDTAVYYCARRDGNYLHVDHFDYWGQGTLVTVSS
VL: B6 VL with K31S, D32A, T50K, I92G, F96W
notes: Soluble Fab-His
B10: Fab F68 (VH H62, VL L62) (Fab, V domains shown)
VH: B6 VH with A33G, A58T, D100W, L101W, P102V, L103T, G104D, R105I
VL: B1 VL with A30S, Y31S, S33Y, A51G, P95N
notes: Soluble Fab-His
B11: Fab F43 (VH H2, VL L44) (Fab, V domains shown)
VH: B6 VH
VL: B6 VL with D32F, T50K, G91Y, I92S, N93T
notes: Soluble Fab-His
B12: Fab F11 (VH H2, VL L9) (Fab, V domains shown)
VH: B6 VH
VL: B6 VL with K31D, D32F, I92S, N93T, W94A, F96Y
notes: Soluble Fab-His
B13: Fab F45 (VH H2, VL L34) (Fab, V domains shown)
VH: B6 VH
VL: B6 VL with A30S, K31S, D32W, T50Y, G91F, I92K, N93G
notes: Soluble Fab-His
B14: Fab F71 (VH H2, VL L65) (Fab, V domains shown)
VH: B6 VH
VL: B6 VL with A30S, K31D, D32Y, T50D, I92S, N93D, W94A, F96L
notes: Soluble Fab-His
B15: Fab F13 (VH H2, VL L11) (Fab, V domains shown)
VH: B6 VH
VL: B6 VL with K31D, D32W, T50N, G91Y, N93R, F96I
notes: Soluble Fab-His
B16: Fab F34 (VH H2, VL L28) (Fab, V domains shown)
VH: B6 VH
VL: B6 VL with D32F, T50K, G91F, I92N, N93S, W94A, F96I
notes: Soluble Fab-His; converted to mAb B5
B17: Fab F102 (VH H2, VL L91) (Fab, V domains shown)
VH: B6 VH
VL: B6 VL with K31D, D32W, T50K, G91S, I92F, N93R, F96L
notes: Soluble Fab-His
B18: Fab F50 (VH H25, VL L46) (Fab, V domains shown)
VH: B6 VH with P102A
VL: B6 VL with A30S, K31S, D32F, G91S, I92H, N93R, W94A, F96W
notes: Soluble Fab-His
B19: Fab F35 (VH H25, VL L29) (Fab, V domains shown)
VH: B6 VH with P102A
VL: B6 VL with D32F, T50K, I92H, N93G, F96R
notes: Soluble Fab-His
B20: Fab F33 (VH H24, VL L35) (Fab, V domains shown)
VH: not shown
VL: B5 VL with S30H, S31N, Y32W, P91S, I92Y, F94T, Y96L
notes: Soluble Fab-His; converted to mAb B15; the Fab's H24 may differ in FR1
B21: Fab F16 (VH H10, VL L13) (Fab, V domains shown)
VH: EVQLVQSGAEVKKPGESLKISCKGSGYSFTSYWIGWVRQMPGKGLEWMGIIYPGDSDTRYSPSFQGQVTISADKSISTAYLQWSSLKASDTAMYYCARGLADFWYFDYWGQGTLVTVSS
VL: B5 VL with S30D, S31V, Y32W, P91S, I92Y, F94T, Y96L
notes: Soluble Fab-His; converted to mAb B2
B22: Fab F54 (VH H44, VL IFWL195) (Fab, V domains shown)
VH: not shown
VL: B5 VL with S30A, S31N, Y32W, P91S, I92Y, F94T, Y96L
notes: Soluble Fab-His; converted to mAb B17; the Fab's H44 may differ in FR1

Biological target: T1, recombinant human ATX beta isoform with N-terminal purification tag (human, UniProt Q13822 49-863)
Assay: Fab-His ELISA
Protocol: (§1) Fabs were captured on black MaxiSorp plates (Nunc, Cat. No. 437111) coated with 1 μg/ml sheep anti-human Fd (CH1) antibody (The Binding Site, Cat. No. PC075). Plates were washed and biotinylated human ATX was added to the captured Fabs at 5 nM. Incubation was carried out for 1 hour at room temperature with gentle shaking. Plates were washed, SA-HRP (Invitrogen, Cat. No. 43-4323) was added and chemiluminescent detection carried out.
(§2) Clones with binding above background were sequenced and unique clones identified. […] These clones were identified with binding signal to human ATX at least 6-fold above the background. Table 3 lists the identifier for VH and VL (Peptide ID) and the combination of both (Fab ID) sorted by the Fab ELISA binding data.

Question: With B1 as the binder, how does the fold above background read?
Answer: Its fold above background is at least 6 fold.

Question: Which fold above background does the source give for B2 here?
Answer: Its fold above background is at least 6 fold.

Question: B3 was tested. Which fold above background did it give?
Answer: Its fold above background is at least 6 fold.

Question: How did the fold above background turn out when B4 was run?
Answer: Its fold above background is at least 6 fold.

Question: B5 was tested. Which fold above background did it give?
Answer: Its fold above background is at least 6 fold.

Question: With B6 as the binder, how does the fold above background read?
Answer: Its fold above background is at least 6 fold.

Question: Which fold above background does the source give for B7 here?
Answer: Its fold above background is at least 6 fold.

Question: How did the fold above background turn out when B8 was run?
Answer: Its fold above background is at least 6 fold.

Question: B9 was tested. Which fold above background did it give?
Answer: The fold above background was at least 6 fold.

Question: For B10, which fold above background is on record?
Answer: Its fold above background is at least 6 fold.

Question: How did the fold above background turn out when B11 was run?
Answer: The fold above background was at least 6 fold.

Question: With B12 as the binder, how does the fold above background read?
Answer: Its fold above background is at least 6 fold.

Question: B13 was tested. Which fold above background did it give?
Answer: Its fold above background is at least 6 fold.

Question: With B14 as the binder, how does the fold above background read?
Answer: The fold above background was at least 6 fold.

Question: With B15 as the binder, how does the fold above background read?
Answer: The fold above background was at least 6 fold.

Question: B16 was tested. Which fold above background did it give?
Answer: The fold above background was at least 6 fold.

Question: Which fold above background does the source give for B17 here?
Answer: Its fold above background is at least 6 fold.

Question: How did the fold above background turn out when B18 was run?
Answer: Its fold above background is at least 6 fold.

Question: For B19, which fold above background is on record?
Answer: Its fold above background is at least 6 fold.

Question: Which fold above background does the source give for B20 here?
Answer: Its fold above background is at least 6 fold.

Question: How did the fold above background turn out when B21 was run?
Answer: Its fold above background is at least 6 fold.

Question: Which fold above background does the source give for B22 here?
Answer: Its fold above background is at least 6 fold.

Biological target: T1, recombinant human ATX beta isoform with …
Assay: ELISA, Fab-His captured by anti-Fd, 5 nM biotinylated human ATX beta
Protocol: as §1, §2

Question: For B1, which “Fab Binding” value is on record?
Answer: The value was 1.2e+06 relative chemiluminescence units.

Question: B2 was tested. Which “Fab Binding” value did it give?
Answer: The value was 1.2e+06 relative chemiluminescence units.

Question: For B3, which “Fab Binding” value is on record?
Answer: The value was 1.4e+06 relative chemiluminescence units.

Question: With B4 as the binder, how does the “Fab Binding” value read?
Answer: Its value is 970000 relative chemiluminescence units.

Question: For B5, which “Fab Binding” value is on record?
Answer: The value was 1.3e+06 relative chemiluminescence units.

Question: How did the “Fab Binding” value turn out when B6 was run?
Answer: Its value is 1e+06 relative chemiluminescence units.

Question: For B7, which “Fab Binding” value is on record?
Answer: Its value is 2.4e+06 relative chemiluminescence units.

Question: B8 was tested. Which “Fab Binding” value did it give?
Answer: The value was 3.8e+06 relative chemiluminescence units.

Question: How did the “Fab Binding” value turn out when B9 was run?
Answer: The value was 980000 relative chemiluminescence units.

Question: Which “Fab Binding” value does the source give for B10 here?
Answer: Its value is 1.8e+06 relative chemiluminescence units.

Question: How did the “Fab Binding” value turn out when B11 was run?
Answer: Its value is 980000 relative chemiluminescence units.

Question: How did the “Fab Binding” value turn out when B12 was run?
Answer: Its value is 1.8e+06 relative chemiluminescence units.

Question: For B13, which “Fab Binding” value is on record?
Answer: The value was 1.2e+06 relative chemiluminescence units.

Question: For B14, which “Fab Binding” value is on record?
Answer: Its value is 1.7e+06 relative chemiluminescence units.

Question: With B15 as the binder, how does the “Fab Binding” value read?
Answer: The value was 1.1e+06 relative chemiluminescence units.

Question: How did the “Fab Binding” value turn out when B16 was run?
Answer: Its value is 2.3e+06 relative chemiluminescence units.

Question: How did the “Fab Binding” value turn out when B17 was run?
Answer: The value was 1.3e+06 relative chemiluminescence units.

Question: With B18 as the binder, how does the “Fab Binding” value read?
Answer: The value was 1.9e+06 relative chemiluminescence units.

Question: B19 was tested. Which “Fab Binding” value did it give?
Answer: Its value is 2.1e+06 relative chemiluminescence units.

Question: For B20, which “Fab Binding” value is on record?
Answer: The value was 1.1e+06 relative chemiluminescence units.

Question: B21 was tested. Which “Fab Binding” value did it give?
Answer: The value was 3.9e+06 relative chemiluminescence units.

Question: How did the “Fab Binding” value turn out when B22 was run?
Answer: Its value is 980000 relative chemiluminescence units.
